Measurements reported in the supplement of paper PMC5998384.

Assays:
HeLa Kyoto [1] = experiment: thermal stability score vs G1/S (z-score of summed log2 fold changes over temperatures); higher = more thermally stable than in G1/S
HeLa Kyoto [2] = experiment: solubility change mitosis vs G1/S (difference of NP-40 vs SDS log2 ratios) (log2 ratio difference); higher = more soluble in mitosis
HeLa Kyoto [3] = experiment: solubility in G1/S (NP-40 vs SDS abundance) (log2 ratio); higher = more soluble; conditions: cell cycle stage: G1/S
HeLa Kyoto [4] = experiment: melting temperature (median over replicates), in situ; higher = more thermally stable
[5] = cell cycle stage: early G1 (4.5 h after nocodazole release)
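Throughout, for melting temperature (median over replicates), in situ: HeLa Kyoto cells synchronized by double thymidine or nocodazole block, proteins quantified by TMT10plex mass spectrometry, three independent biological replicates.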
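Throughout, for solubility change mitosis vs G1/S (difference of NP-40 vs SDS log2 ratios): synchronized HeLa Kyoto cells (double thymidine block for G1/S, nocodazole release for mitosis), protein amounts in NP-40 versus SDS lysates quantified by mass spectrometry, three biological replicates.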
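Throughout, for solubility in G1/S (NP-40 vs SDS abundance): HeLa Kyoto cells arrested at G1/S by double thymidine block, proteins quantified by TMT10plex mass spectrometry in mild NP-40 versus SDS extracts, three biological replicates.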
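Throughout, for thermal stability score vs G1/S (z-score of summed log2 fold changes over temperatures): synchronized HeLa Kyoto cells, proteins quantified by TMT10plex mass spectrometry, three biological replicates, mitosis taken 0.5 h after nocodazole release, G1/S directly after double thymidine block.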

Sequence	thermal stability score (HeLa Kyoto [1]; [5])	thermal stability score (HeLa Kyoto [1]; cell cycle stage: mitosis)	solubility change mitosis (log2) (HeLa Kyoto [2])	solubility in G1/S (log2) (HeLa Kyoto [3])	melting temperature (HeLa Kyoto [4]; cell cycle stage: G1/S) [°C]	melting temperature (HeLa Kyoto [4]; cell cycle stage: mitosis) [°C]
MAGDVGGRSCTDSELLLHPELLSQEFLLLTLEQKNIAVETDVRVNKDSLTDLYVQHAIPLPQRDLPKNRWGKMMEKKREQHEIKNETKRSSTVDGLRKRPLIVFDGSSTSTSIKVKKTENGDNDRLKPPPQASFTSNAFRKLSNSSSSVSPLILSSNLPVNNKTEHNNNDAKQNHDLTHRKSPSGPVKSPPLSPVGTTPVKLKRAAPKEEAEAMNNLKPPQAKRKIQHVTWP [C2ORF49]	-1.3	-1.02	0.015	0.348	50.3	51.3
MAGELADKKDRDASPSKEERKRSRTPDRERDRDRDRKSSPSKDRKRHRSRDRRRGGSRSRSRSRSKSAERERRHKERERDKERDRNKKDRDRDKDGHRRDKDRKRSSLSPGRGKDFKSRKDRDSKKDEEDEHGDKKPKAQPLSLEELLAKKKAEEEAEAKPKFLSKAEREAEALKRRQQEVEERQRMLEEERKKRKQFQDLGRKMLEDPQERERRERRERMERETNGNEDEEGRQKIREEKDKSKELHAIKERYLGGIKKRRRTRHLNDRKFVFEWDASEDTSIDYNPLYKERHQVQLLGRGFIAGIDLKQQKREQSRFYGDLMEKRRTLEEKEQEEARLRKLRKKEAKQRWDDRHWSQKKLDEMTDRDWRIFREDYSITTKGGKIPNPIRSWKDSSLPPHILEVIDKCGYKEPTPIQRQAIPIGLQNRDIIGVAETGSGKTAAFLIPLLVWITTLPKIDRIEESDQGPYAIILAPTRELAQQIEEETIKFGKPLGIRTVAVIGGISREDQGFRLRMGCEIVIATPGRLIDVLENRYLVLSRCTYVVLDEADRMIDMGFEPDVQKILEHMPVSNQKPDTDEAEDPEKMLANFESGKHKYRQTVMFTATMPPAVERLARSYLRRPAVVYIGSAGKPHERVEQKVFLMSESEKRKKLLAILEQGFDPPIIIFVNQKKGCDVLAKSLEKMGYNACTLHGGKGQEQREFALSNLKAGAKDILVATDVAGRGIDIQDVSMVVNYDMAKNIEDYIHRIGRTGRAGKSGVAITFLTKEDSAVFYELKQAILESPVSSCPPELANHPDAQHKPGTILTKKRREETIFA [DDX23]	1.14	3.64	0.24	-1.02	48.8	50.4
MAGGAREVLTLQLGHFAGFVGAHWWNQQDAALGRATDSKEPPGELCPDVLYRTGRTLHGQETYTPRLILMDLKGSLSSLKEEGGLYRDKQLDAAIAWQGKLTTHKEELYPKNPYLQDFLSAEGVLSSDGVWRVKSIPNGKGSSPLPTATTPKPLIPTEASIRVWSDFLRVHLHPRSICMIQKYNHDGEAGRLEAFGQGESVLKEPKYQEELEDRLHFYVEECDYLQGFQILCDLHDGFSGVGAKAAELLQDEYSGRGIITWGLLPGPYHRGEAQRNIYRLLNTAFGLVHLTAHSSLVCPLSLGGSLGLRPEPPVSFPYLHYDATLPFHCSAILATALDTVTVPYRLCSSPVSMVHLADMLSFCGKKVVTAGAIIPFPLAPGQSLPDSLMQFGGATPWTPLSACGEPSGTRCFAQSVVLRGIDRACHTSQLTPGTPPPSALHACTTGEEILAQYLQQQQPGVMSSSHLLLTPCRVAPPYPHLFSSCSPPGMVLDGSPKGAAVESIPVFGALCSSSSLHQTLEALARDLTKLDLRRWASFMDAGVEHDDVAELLQELQSLAQCYQGGDSLVD [MSTO1]	0.792	0.318	-0.0764	0.162	51.2	51.1
MAGGMKVAVSPAVGPGPWGSGVGGGGTVRLLLILSGCLVYGTAETDVNVVMLQESQVCEKRASQQFCYTNVLIPKWHDIWTRIQIRVNSSRLVRVTQVENEEKLKELEQFSIWNFFSSFLKEKLNDTYVNVGLYSTKTCLKVEIIEKDTKYSVIVIRRFDPKLFLVFLLGLMLFFCGDLLSRSQIFYYSTGMTVGIVASLLIIIFILSKFMPKKSPIYVILVGGWSFSLYLIQLVFKNLQEIWRCYWQYLLSYVLTVGFMSFAVCYKYGPLENERSINLLTWTLQLMGLCFMYSGIQIPHIALAIIIIALCTKNLEHPIQWLYITCRKVCKGAEKPVPPRLLTEEEYRIQGEVETRKALEELREFCNSPDCSAWKTVSRIQSPKRFADFVEGSSHLTPNEVSVHEQEYGLGSIIAQDEIYEEASSEEEDSYSRCPAITQNNFLT [NEMP1]	1.73	6.13	0.0939	0.0297	53.8	54.5
MAGKKVLIVYAHQEPKSFNGSLKNVAVDELSRQGCTVTVSDLYAMNLEPRATDKDITGTLSNPEVFNYGVETHEAYKQRSLASDITDEQKKVREADLVIFQFPLYWFSVPAILKGWMDRVLCQGFAFDIPGFYDSGLLQGKLALLSVTTGGTAEMYTKTGVNGDSRYFLWPLQHGTLHFCGFKVLAPQISFAPEIASEEERKGMVAAWSQRLQTIWKEEPIPCTAHWHFGQ [NQO2]	-1.69	-2.35	-0.0114	0.396	59	62
MAGKQAVSASGKWLDGIRKWYYNAAGFNKLGLMRDDTIYEDEDVKEAIRRLPENLYNDRMFRIKRALDLNLKHQILPKEQWTKYEEENFYLEPYLKEVIRERKEREEWAKK [UQCRB]	-3.18	-2.78	0.253	-0.132	53.9	52.2
MAGLGHPAAFGRATHAVVRALPESLGQHALRSAKGEEVDVARAERQHQLYVGVLGSKLGLQVVELPADESLPDCVFVEDVAVVCEETALITRPGAPSRRKEVDMMKEALEKLQLNIVEMKDENATLDGGDVLFTGREFFVGLSKRTNQRGAEILADTFKDYAVSTVPVADGLHLKSFCSMAGPNLIAIGSSESAQKALKIMQQMSDHRYDKLTVPDDIAANCIYLNIPNKGHVLLHRTPEEYPESAKVYEKLKDHMLIPVSMSELEKVDGLLTCCSVLINKKVDS [DDAH1]	0.276	-0.764	0.0143	0.157	55.3	56.1
MAGPAWISKVSRLLGAFHNPKQVTRGFTGGVQTVTLIPGDGIGPEISAAVMKIFDAAKAPIQWEERNVTAIQGPGGKWMIPSEAKESMDKNKMGLKGPLKTPIAAGHPSMNLLLRKTFDLYANVRPCVSIEGYKTPYTDVNIVTIRENTEGEYSGIEHVIVDGVVQSIKLITEGASKRIAEFAFEYARNNHRSNVTAVHKANIMRMSDGLFLQKCREVAESCKDIKFNEMYLDTVCLNMVQDPSQFDVLVMPNLYGDILSDLCAGLIGGLGVTPSGNIGANGVAIFESVHGTAPDIAGKDMANPTALLLSAVMMLRHMGLFDHAARIEAACFATIKDGKSLTKDLGGNAKCSDFTEEICRRVKDLD [IDH3A]	-0.172	-1.18	-0.00106	0.45	54.5	54.6
MAGPRGALLAWCRRQCEGYRGVEIRDLSSSFRDGLAFCAILHRHRPDLLDFDSLSKDNVFENNRLAFEVAEKELGIPALLDPNDMVSMSVPDCLSIMTYVSQYYNHFCSPGQAGVSPPRKGLAPCSPPSVAPTPVEPEDVAQGEELSSGSLSEQGTGQTPSSTCAACQQHVHLVQRYLADGRLYHRHCFRCRRCSSTLLPGAYENGPEEGTFVCAEHCARLGPGTRSGTRPGPFSQPKQQHQQQLAEDAKDVPGGGPSSSAPAGAEADGPKASPEARPQIPTKPRVPGKLQELASPPAGRPTPAPRKASESTTPAPPTPRPRSSLQQENLVEQAGSSSLVNGRLHELPVPKPRGTPKPSEGTPAPRKDPPWITLVQAEPKKKPAPLPPSSSPGPPSQDSRQVENGGTEEVAQPSPTASLESKPYNPFEEEEEDKEEEAPAAPSLATSPALGHPESTPKSLHPWYGITPTSSPKTKKRPAPRAPSASPLALHASRLSHSEPPSATPSPALSVESLSSESASQTAGAELLEPPAVPKSSSEPAVHAPGTPGNPVSLSTNSSLASSGELVEPRVEQMPQASPGLAPRTRGSSGPQPAKPCSGATPTPLLLVGDRSPVPSPGSSSPQLQVKSSCKENPFNRKPSPAASPATKKATKGSKPVRPPAPGHGFPLIKRKVQADQYIPEEDIHGEMDTIERRLDALEHRGVLLEEKLRGGLNEGREDDMLVDWFKLIHEKHLLVRRESELIYVFKQQNLEQRQADVEYELRCLLNKPEKDWTEEDRAREKVLMQELVTLIEQRNAIINCLDEDRQREEEEDKMLEAMIKKKEFQREAEPEGKKKGKFKTMKMLKLLGNKRDAKSKSPRDKS [MICALL1]	-0.815	1.14	-0.0692	0.417	49.4	50.5
